Assay: yeast display, Sf9 membrane polyspecificity reagent, FACS + sequencing; frameworks hold sequencing errors
Procedure, shortened: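 Synthetic nanobody libraries on Saccharomyces cerevisiae BJ5465 were galactose-induced for 36–48 hours, stained 1 hour at 4 °C with 10% biotinylated, detergent-solubilized Sf9 membrane reagent and enriched on streptavidin microbeads. FACS then separated cells into low and high (top ~1%) gates by anti-HA (expression) and streptavidin (reagent binding) fluorescence. Genes were colony-PCR amplified, MiSeq 2 × 250 sequenced and CDR-length filtered. A clone's polyreactivity label is that of its gate of origin.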

Sequence | polyreactivity (PSR sort gate)
QVQLVESGGGLVQAGGSLRLSCAASGHTLAVKAKGWYRQAPGKERELVAAITRSGVTTSYADSVKGRFTISRDNAQNTFYLQLHSVKPEDTAVSYCAAQLDASYLTGGWRRHYNYWGQGTQVTVSS | low polyreactivity
QVQLVESGGGLVQAGGSLRLSCAASGFIFYNYAMGWYRQAPGKERELVAAITSRGGSTYYADSVKGRFTISRDNAKNTVYLQMNSLKPEDTAVYYCAAVKVGDARFVRNDYWGQGTQVTVSS | high polyreactivity
QVQLVESGGGLVQAGGSLRLSCAASGRIFSSYAMGWYRQAPGKERELVARISYSGGSTYYADSVKGRFTISRDNAKNTVYLQMNSLKPEDTAVYYCNARYYGYGAGYRPYDYWGQGTQVTVSS | high polyreactivity
QVQLVESGGGLVQAGGSLRLSCAASGRIFVYNVMGWYRQAPGKERELVAAISWGTGSTYADSVKGRFTISRDNAKNSVNLQMNSLKPDDTAVYYCAKESTVRRYDYWGLGTQVTVSS | low polyreactivity
QVQRVESGGGLGQAGGSLRLSCAASGIIFDYYAMGWYRQAPGNERELVAAITTSGGRTYYADSVKGRFTISRDNEKNTVYLQMNRLKPEDTAVYYCAASRPSPRPRDGYWGQGTQVTVSS | high polyreactivity
QVLLVESGGGLVQAGGSLRLSCAASGRIFNAYAMGWYRQAPGKERELVAAISRSGGRTYYADSVKGRFTISRDNAKITVYLQMNSLKPEDTAVYYCAADAWSEQYPKYYYWGQGTQVTVSS | low polyreactivity
QVQLVESGGGLVQAGGSLRLSCAASGRIFYIYTMGWYRPAPGKEREFVAGINWNGGSTYYADSVKGRFTISRDNAKNTVYLQMNSLKPEDTAVYYCNADQYWDRYYYWGQGTQVTVSS | low polyreactivity
QVQLVESGGGLVQAGGSLRLSCAASGSTFWSYTMGWYRQAPGKERELVAAIRFSGGSTYYADSVKGRFTISRDNAKNTVYLQMNSLKPEDTAVYYCAAGYYRRPYEYWGQGTQVTVSS | low polyreactivity
QVKLVESGGGLVQAGGSLLLSCAASGITFSRNAMGLYREAPGKERELVAAINWTGGNTYYADSVKGRFTISRDNAKNTVYLQMISMKPEDTAVYYCAAERRCFVWGLGYWGQGTQVTVSS | low polyreactivity
QVQLVESGGGLVQAGGSLRLSCAASGGTFWVNMGWYRQAPGKEREFVAAITWSAGSTYYADSVKGRFTISRDNAKNTVYLQMNSLKPEDTAVYYCAGGGGHYQEYLMEDYWGQGTQVTVSS | high polyreactivity
QVQLVESGGGLVQAGGSLRISCAASGSTFTTYAMGWYRQAPGKERELVARIRSSGGITYYADSVKGRFTISRDNAKNTVYLQMNSLKPEDTAVYYCAARGQFYNTRVGYWGQGTQVTVSS | high polyreactivity
QVQLVESGGGLVQAGGSLRLSCAASGITFSVYAMGWYRQAPGKERELVASISSGGTSTYYADSVKGRFTISRDNAKNTVYLQMNSLKPEDTAVYYCAAYSYYTGDQYSYDYWGQGTQVTVSS | low polyreactivity
QVQLVESGGGLVQAGGSLRLSCAASGGTFLGYAMGWYRQAPGKDRELVAAIAASGGNTYYADSVKGRFTISRDNAKNTVYLQMNSLKPEATAVYYGAARQYRSVLKYDYWGQGTQVTVSS | high polyreactivity
QVQLVESGGGLVQAGGSLRLSCAASGRTYPGNAMGWYRPAPGKERELVAAISWSGTRTYYADSVKGRFTISRDNAKNTVYLQMNSLKPEDTAVHFCNVVVKGAWDYYPYDYWGQGTQVTVSS | high polyreactivity
QVQLVESGGGLVQAGGSLRLSCAASGSTFVRNAMGWYRQAPGKERELVAAITWSTGTTYYADSVKGRFTISRDNAKNTVYLQMNSLKPEDTAVYYCAADIYTELFKHDYWGQGTQVTVSS | low polyreactivity
QVQLVESGAGLVQAGGSLRLSWAASGFTFAQNAMGWYTQAPGKERELVAAISRRGGSTYYADSVKGRFTISRDNAKNTVYLQMNSLKPEDTAVYYCDTAGTYTGGEGYWGQGTQVTVSS | high polyreactivity

Sequence | polyreactivity (PSR sort gate)
QVQLVESGGGLVQAGGSLRLSCAASGSIFPSYAMGWYRQAPGKERELVAAISTWNDGGTYYADSVKGRFTISRDNGKNTVYLQMNSLKPEDTAVYYCAADSPKYYYDYDYWGQGTQVTVSS | low polyreactivity
QVQLVESGGGLVQAGGSLRLSCAASGRIFLYYAMGWYRQAPGKERELVAAIDSSGGNTNYADSVKGRFTISRDNAKNTVYFQMNSLKPEDTAVYYCAADFYVSADRWPNYDYWGQGTQVTVSS | low polyreactivity
QVQLVESGGGLVQAGGSLRLSCAASGSIFPHNAMGWYRQAPGKERELVAAISTSGGRTYYADSVKGRFTISRDNAKNTVYLQMNSLKPVDTAVYYCNARSVRSRYDYWGQGTQVTVSS | high polyreactivity
QVQLVESGGGLDQAGGSLRLSCAASGFTFYPYAMGWYRQAPGKERELVASITSAGGTNYADSVKGRFTISRDNAKNTVYVQLNSLKPEDTAVYYCAAKYRSRGPDYYFNSDYWGQGTQVTVSS | low polyreactivity
QVQLVESCGGLVQAGGSHRLSCAASGFTFTRNALGWYRQAPGKERELVAAISIRGSSTYYADSVKGRFTISRDNAKNTVYLQMNILKQEDTAVYYCSAPTFSLHGTYGYWGQGTQVTVSS | high polyreactivity
QVQLVESGGCLVQAGGSLRLSCAASGSIFGENAMGWYRQAPGKERELVAAITSGGSTDYADSVKGRFTISRDNAKNTVYLQMNSLKTEDTAVYYCAASGRVGPGYWYDSWGQGTQVTVSS | low polyreactivity
QVQLVESGGGLVQAGGSLRLSCAASGSIFAWYAMGWYRRAPGKESELVAAITWSGGSTYYADSVKGRFTISRDNAKNTVYLQMNSMKQEDTAVYYCAVEWYYRNNAIISGYYYWGKGTQVTVSS | high polyreactivity
QDQLVESGGGLVQAGGSLRLSCAASGSIFTRYTMGWYRQAPGKERELVATISSRGDGTYYADSVKGRFTISRDNAKNTVYLQMNSLKPEDTAVYYCAARYRRVHSGYGYWGQGTQVTVSS | high polyreactivity
QVQLVESGGGLVQAGGSLRLSCAASGSPFYAYAMGWYRQAPGKERQLVAAITYRDGRTNYADSVKGRFTISRDNAKNTVYLQMNSMKPEDTEVYYCARITGFTVRRYDYWGQGTQVTVSS | high polyreactivity
QVQLVESGGGLVQAGGSLRLSCAASGFIFYNYAMGLYRQAPGKERELVAAISASGGRTYYADSVKGRFTISRDNAKNTVYLQMNRLKPEDTAVYYCNARVNYKGYDYWGQGTQVTVSS | high polyreactivity
QVQLVESGGGLVQAGGSLRLSCAASGFTFAKYAMGWYRQAPGKERELVAAISSSGGRTYYADSVQGRFTISRDNAKNTVYLQMNSLKPEDTAVYYCAADFSGPFDYWGQGTQVTVSS | high polyreactivity
QVQLVESGGGLVQAGGSLRFSCAASGRIFRYYAMGWYRQAPGKERELVAGIRTSGGRTYADSVKGRFTISRDNAKNTVYLQMNSLKPEDTAVYYCAAGRRTLSMYYWGQGTQVTVSS | high polyreactivity
QVQLVETGGGLVQAGGSLRISCAASGSTFVDYDMGWYRQAPGKERELVAGITTGGSTNYADSVKGRFTISRDNAKNTVYLQMNSLKPEDTAVYYCNADSYPNLVPDYLYYWYEYWGQGTQVTVSS | low polyreactivity
QVQLVESGGGLVQAGGSLRLSSAASGRTFYKYAMGWYRQAPGKERELVAAISWNGGSTYYADSVKGRFTISRDNAKNTVYLQMNSLKPEDTAVYYCNVVNQRSRTGDYWGQGTQVTVSS | high polyreactivity
QVQLVESGGGLVQAGGSLRLSCAASGRTSYSNAMGWYRQAPGKERELVAAISGSGVRTYYADSVKGRFTISRDNAKNTVYLQMNSLKPEDTAVYYCAAAGRYPALYGYWGQGTQVTVSS | high polyreactivity
QVKLVESGGGLVQAGGSLRLSCAASGSIFLAYAMGWYRQAPGKEREFVAAISCSDGSTYYADSVKGRFTISRDNAKNTVYLQMNSLKPDDTAVFYCYKGASADDYDYCGQGTQVTVSS | low polyreactivity

— the nanobody polyreactivity screen of Harvey et al. (2022)
